The test concerns the target tubulin of PC12 cells (microtubule (MT) fraction, soluble tubulin (ST) fraction or cell lysate) (rat (endogenous in PC12)) (UniProt P68370). The test is described as follows: co-IP; MT fraction of PC12 cells, untreated or treated with 100 ng/mL NGF for three days; 100 μL aliquots (~0.25–1 mg/mL) with anti-α tubulin or anti-Gβ for 1 h at 4°C, then protein A-sepharose overnight at 4°C; immunoblot for Gβ or tubulin. For orientation: In western blotting, separated proteins are transferred to a membrane and probed.

“βγ subunit of heterotrimeric G proteins (Gβγ), endogenous in PC12 cells (from UniProt P54311 1-340) (complex)” displayed a fold increase of co-immunoprecipitation in NGF-treated over untreated cells of 2 to 3 fold.

Values taken from article PMC4302597.
